± gives the uncertainty stated by the source.

A short description of this data set: self-splicing fitness, log relative to wild type (ln ratio); higher = more splicing; Tetrahymena group I intron in knt gene, E. coli kanamycin selection, DiMSum; sequences stand for … in CUCUCU…GGAGGGAAAAGUUAUCAGGCAUGCACCUGGUAGCUAGUCUUUAAACCAAUAGAUUGCAUCGGUUUAAAAGGCAAGACCGUCAAAUUGCGGGAAAGGGGUCAACAGCCGUUCAGUACCAAGUCUCAGGGGAAACUUUGAGAUGGCCUUGCAAAGGGUAUGGUAAUAAGCUGACGGACAUGGUCCUAACCACGCAGCCAAGUCCUAAGUCAACAGAUCUUCUGUUGAUAUGGAUGCAGUUCACAGACUAAAUGUCGGUCGGGGAAGAUGUAUUCUUCUCAUAAGAUAUAGUCGGACCUCUCCUUAAUGGGAGCUAGCGGAUGAAGUGAUGCAACACUGGAGCCGCUGGGAACUAAUUUGUAUGCGAAAGUAUAUUGAUUAGUUUUGGAGUACUCGUGGUCG
The gist of the method: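 Pooled colonies went to amplicon sequencing on an Illumina HiSeq 2500 after six replicate transformations. The plates were LB agar with 100 μg/mL carbenicillin, 50 μM IPTG and 0.2% rhamnose, with or without 25 μg/mL kanamycin, incubated overnight at 37°C or 30°C. The E. coli BL21(DE3) library had all eight P1ex-region intron nucleotides randomised, the intron placed in the knt kanamycin-resistance gene on pET-22b(+). DiMSum fitness is the error-weighted combination of replicate fold changes, kanamycin against none, normalised to wild type.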

GUAAAGCAAUAUUACGUCUG: the “self-splicing fitness (ln)” value reads like this: (30 °C) -1.56 ± 0.11; (37 °C) 0.0989 ± 0.11. For GUAAAGCAAUAUUACGUCUU, the “self-splicing fitness (ln)” value reads like this: (30 °C) -0.455 ± 0.1; (37 °C) 0.291 ± 0.12. Consider GUAAAGCAAUAUUACGUGUC, for which the “self-splicing fitness (ln)” value runs as follows: (30 °C) -1.85 ± 0.06; (37 °C) -1.14 ± 0.079.

With GUAAAGCAAUAUUACGUUCU, the “self-splicing fitness (ln)” value is, setting by setting: (30 °C) -0.888 ± 0.05; (37 °C) -0.135 ± 0.071. As to GUACAGCAAUAUUACGACAC, the “self-splicing fitness (ln)” value reads like this: (30 °C) -0.333 ± 0.099; (37 °C) 0.291 ± 0.11.

In the case of GUACAGCAAUAUUACGACGA, the “self-splicing fitness (ln)” value runs as follows: (30 °C) -1.54 ± 0.14; (37 °C) -1.07 ± 0.12. In the case of GUACAGCAAUAUUACGAGCU, the “self-splicing fitness (ln)” value reads like this: (30 °C) -2.18 ± 0.15; (37 °C) -1.51 ± 0.15. Turning to GUACAGCAAUAUUACGAUUU, the “self-splicing fitness (ln)” value by setting is: (30 °C) -1.28 ± 0.11; (37 °C) -0.49 ± 0.089.

On to GUACAGCAAUAUUACGCAGC, for which the “self-splicing fitness (ln)” value reads like this: (30 °C) -2.41 ± 0.17; (37 °C) -2.33 ± 0.23.

On to GUACAGCAAUAUUACGCGUA, for which the “self-splicing fitness (ln)” value by setting is: (30 °C) -3.44 ± 0.32; (37 °C) -1.71 ± 0.24. As to GUACAGCAAUAUUACGCUGG, the “self-splicing fitness (ln)” value by setting is: (30 °C) -2.55 ± 0.13; (37 °C) -0.491 ± 0.12. Take GUACAGCAAUAUUACGGAGA: the “self-splicing fitness (ln)” value reads like this: (30 °C) -3.87 ± 0.35; (37 °C) -2.81 ± 0.21. The corresponding values for GUACAGCAAUAUUACGGCCA are -0.539 ± 0.17 and -1.13 ± 0.17. With GUACAGCAAUAUUACGGCUC, the “self-splicing fitness (ln)” value is, setting by setting: (30 °C) 0.189 ± 0.083; (37 °C) 1.05 ± 0.097. For GUACAGCAAUAUUACGGCUU, the “self-splicing fitness (ln)” value by setting is: (30 °C) -0.512 ± 0.08; (37 °C) 0.22 ± 0.09. On to GUACAGCAAUAUUACGGUAG, for which the “self-splicing fitness (ln)” value (30 °C) was -1.31 ± 0.062 and the “self-splicing fitness (ln)” value (37 °C) is -0.303 ± 0.068.

In the case of GUAGAGCAAUAUUACGAAGC, the “self-splicing fitness (ln)” value is, setting by setting: (30 °C) -2.62 ± 0.24; (37 °C) -0.723 ± 0.26. GUAGAGCAAUAUUACGAGCA: the “self-splicing fitness (ln)” value by setting is: (30 °C) -0.443 ± 0.17; (37 °C) -0.601 ± 0.22.

For the sequence GUAGAGCAAUAUUACGAGUC, the “self-splicing fitness (ln)” value reads like this: (30 °C) -2.19 ± 0.17; (37 °C) -1.47 ± 0.24.

Regarding GUAGAGCAAUAUUACGAGUU, the “self-splicing fitness (ln)” value (30 °C) was -2.39 ± 0.2 and the “self-splicing fitness (ln)” value (37 °C) is -1.85 ± 0.2. For GUAGAGCAAUAUUACGCAUG, the “self-splicing fitness (ln)” value runs as follows: (30 °C) -1.94 ± 0.13; (37 °C) -0.699 ± 0.19. Regarding GUAGAGCAAUAUUACGCCCA, the “self-splicing fitness (ln)” value is -1.56 ± 0.2 (30 °C) and -0.471 ± 0.25 (37 °C). The like results for GUAGAGCAAUAUUACGCCCC were, in that order, -1.39 ± 0.19 and -0.63 ± 0.28. Turning to GUAGAGCAAUAUUACGCCUG, the “self-splicing fitness (ln)” value was -1.21 ± 0.31 (30 °C) and -0.594 ± 0.32 (37 °C). With GUAGAGCAAUAUUACGCGGC, the “self-splicing fitness (ln)” value was -3.37 ± 0.2 (30 °C) and -2.07 ± 0.18 (37 °C).

On to GUAGAGCAAUAUUACGCGUU, for which the “self-splicing fitness (ln)” value (30 °C) is -0.368 ± 0.065 and the “self-splicing fitness (ln)” value (37 °C) was -0.909 ± 0.11. On to GUAGAGCAAUAUUACGCUGU, for which the “self-splicing fitness (ln)” value is -1.88 ± 0.2 (30 °C) and -0.607 ± 0.22 (37 °C). For GUAGAGCAAUAUUACGGGCA, the “self-splicing fitness (ln)” value was -1.69 ± 0.15 (30 °C) and -0.35 ± 0.21 (37 °C). The like results for GUAGAGCAAUAUUACGGGUU were, in that order, -4.13 ± 0.3 and -2.15 ± 0.22. Turning to GUAGAGCAAUAUUACGUAAU, the “self-splicing fitness (ln)” value was -2.04 ± 0.13 (30 °C) and -0.878 ± 0.12 (37 °C).

As for GUAGAGCAAUAUUACGUAGC, for the setting “30 °C”, the “self-splicing fitness (ln)” value was -1.16 ± 0.19. As for GUAUAGCAAUAUUACGAGAU, the “self-splicing fitness (ln)” value is, setting by setting: (30 °C) -3 ± 0.29; (37 °C) -1.22 ± 0.22. For GUAUAGCAAUAUUACGAUCU, the “self-splicing fitness (ln)” value is -1.16 ± 0.19 (30 °C) and 0.209 ± 0.21 (37 °C).

The values are drawn from the supplement of paper PMC7877785.
